# Assay results as given in US20250084186A1 (published 2025).
# Numbering of substitutions follows the chain as printed.
# T1: cynomolgus ENPP3 (cynomolgus, UniProt A0A2K5TKP4 49-874)
# T1 chain: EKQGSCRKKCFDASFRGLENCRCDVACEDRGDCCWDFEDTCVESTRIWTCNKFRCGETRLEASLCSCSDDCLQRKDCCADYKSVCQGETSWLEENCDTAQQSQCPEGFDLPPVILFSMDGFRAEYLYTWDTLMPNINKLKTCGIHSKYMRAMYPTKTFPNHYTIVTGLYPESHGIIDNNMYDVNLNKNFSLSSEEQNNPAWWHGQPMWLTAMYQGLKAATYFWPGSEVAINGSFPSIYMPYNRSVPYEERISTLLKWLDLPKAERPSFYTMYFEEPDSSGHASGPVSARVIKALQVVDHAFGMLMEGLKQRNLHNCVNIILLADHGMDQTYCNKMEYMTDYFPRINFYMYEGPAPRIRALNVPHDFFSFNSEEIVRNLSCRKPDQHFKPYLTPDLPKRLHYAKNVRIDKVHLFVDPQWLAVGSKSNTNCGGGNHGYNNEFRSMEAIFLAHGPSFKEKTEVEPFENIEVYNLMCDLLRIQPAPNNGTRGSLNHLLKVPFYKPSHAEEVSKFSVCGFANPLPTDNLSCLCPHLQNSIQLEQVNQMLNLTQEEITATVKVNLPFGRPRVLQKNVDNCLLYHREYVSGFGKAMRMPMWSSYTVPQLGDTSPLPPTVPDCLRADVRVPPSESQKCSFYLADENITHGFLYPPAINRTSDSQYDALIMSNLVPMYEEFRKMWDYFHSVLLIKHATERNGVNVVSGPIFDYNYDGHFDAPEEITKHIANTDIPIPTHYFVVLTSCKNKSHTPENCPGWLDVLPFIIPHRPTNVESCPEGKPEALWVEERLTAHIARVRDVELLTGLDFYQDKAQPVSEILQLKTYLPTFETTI
# B1: AN1[ENPP3]_H1_L1.33 (antibody, V domains shown)
# VH: EVQLVESGGGLVQPGGSLRLSCAASGFAFSNYGMSWVRQAPGKRLEWVSYISSGGGTTYYLDSVKGRFTISRDNAKNSLYLQMNSLRAEDTAVYYCARHRRVYYGYYFDYWGQGTLVTVSS
# VL: DILLTQSPDFQSVTPKEKVTITCRASQSIGTSIHWYQQKPDQSPKLLIEYASESISGIPSRFSGSGSGTDFTLTINSLEAEDAATYYCQQSNSWPYTFGGGTKLEIK
# B2: AN1[ENPP3]_H1L1 (antibody, V domains shown)
# VH: B1 VH
# VL: B1 VL with E49K
# B3: Cyno ENPP3 (enzyme)
# chain: T1 chain
# B4: H1.14_L1 (antibody, V domains shown)
# VH: EVQLLESGGGLVQPGGSLRLSCAASGFTFSSYAMSWVRQAPGKGLEWVSTISGSGDSTYYADSVKGRFTISRDNSKNTLYLQMNSLRAEDTAVYYCAKSGPGLRQVGFDYWGQGTLVTVSS
# VL: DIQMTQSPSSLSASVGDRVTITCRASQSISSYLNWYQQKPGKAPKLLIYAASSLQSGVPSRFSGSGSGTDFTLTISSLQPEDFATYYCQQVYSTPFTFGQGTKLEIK
# B5: H1.1_L1.71 (antibody, V domains shown)
# VH: B4 VH with A33Y, G53E
# VL: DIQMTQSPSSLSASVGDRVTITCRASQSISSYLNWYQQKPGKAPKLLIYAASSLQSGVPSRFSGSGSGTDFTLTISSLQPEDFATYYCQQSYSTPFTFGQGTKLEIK
# B6: H1_L1.71 (antibody, V domains shown)
# VH: B4 VH with A33Y
# VL: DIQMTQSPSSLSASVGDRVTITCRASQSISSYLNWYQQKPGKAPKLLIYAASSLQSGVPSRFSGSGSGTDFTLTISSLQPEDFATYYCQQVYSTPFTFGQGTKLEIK
# B7: H1.14_L1.71 (antibody, V domains shown)
# VH: B4 VH with A33Y, G53E
# VL: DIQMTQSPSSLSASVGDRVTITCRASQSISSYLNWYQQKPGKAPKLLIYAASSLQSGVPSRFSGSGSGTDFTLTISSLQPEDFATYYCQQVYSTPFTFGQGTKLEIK
# B8: H1L1 (antibody, V domains shown)
# VH: B4 VH
# VL: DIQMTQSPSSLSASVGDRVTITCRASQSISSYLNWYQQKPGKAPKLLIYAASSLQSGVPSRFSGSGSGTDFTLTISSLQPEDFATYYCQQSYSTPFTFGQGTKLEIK
# B9: H1.1_L1 (antibody, V domains shown)
# VH: B4 VH with A33Y
# VL: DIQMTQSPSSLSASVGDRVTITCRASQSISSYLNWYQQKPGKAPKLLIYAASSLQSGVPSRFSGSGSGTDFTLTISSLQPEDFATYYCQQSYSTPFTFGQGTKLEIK
# Key:
# [1] = molecular target: T1, cynomolgus ENPP3; assay: Biacore; kinetics
# [2] = molecular target: Human ENPP3; assay: Biacore; kinetics
# [3] = molecular target: T1, cynomolgus ENPP3; assay: Biacore; steady state
# [4] = molecular target: Human ENPP3; assay: Biacore; steady state
# [5] = molecular target: Ha16-1(3,5)18[ENPP3]_H1L1; assay: Biacore; kinetics
# [6] = molecular target: ENPP3-A[ENPP3]_H1L1; assay: Biacore; kinetics
# [7] = molecular target: Ha16-1(3,5)5[ENPP3]_H1L1; assay: Biacore; kinetics
# [8] = molecular target: Ha16-1(3,5)18[ENPP3]_H1L1; assay: Biacore; steady state
# [9] = molecular target: ENPP3-A[ENPP3]_H1L1; assay: Biacore; steady state
# [10] = molecular target: Ha16-1(3,5)5[ENPP3]_H1L1; assay: Biacore; steady state
# [11] = molecular target: human CD28 (human, UniProt P10747 19-152); assay: -; scFv VHVL, 1+1 Fab-scFv-Fc
binder,measurement,setting,value
B1,Kd,[1],1800 nM
same,Kd,[2],74 nM
same,Kd,[3],1200 nM
same,Kd,[4],170 nM
B2,Kd,[1],460 nM
same,Kd,[2],9 nM
same,Kd,[3],470 nM
same,Kd,[4],35 nM
B3,Kd,[5],110 nM
same,Kd,[6],320 nM
same,Kd,[7],21 nM
same,Kd,[8],140 nM
same,Kd,[9],330 nM
same,Kd,[10],70 nM
B4,Kd,[11],230 nM
B5,Kd,[11],96 nM
B6,Kd,[11],180 nM
B7,Kd,[11],37 nM
B8,Kd,[11],1000 nM
B9,Kd,[11],600 nM
